Biological target: Ub-AMC (ubiquitin-AMC), P0CG47
Sequence (P0CG47 whole entry, looked up): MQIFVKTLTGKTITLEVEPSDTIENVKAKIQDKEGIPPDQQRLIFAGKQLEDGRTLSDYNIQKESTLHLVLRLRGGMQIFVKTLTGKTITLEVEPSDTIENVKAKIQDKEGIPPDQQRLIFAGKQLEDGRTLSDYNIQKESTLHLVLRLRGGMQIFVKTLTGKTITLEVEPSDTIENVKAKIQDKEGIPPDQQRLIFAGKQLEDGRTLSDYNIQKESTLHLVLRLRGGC

B1: USP1/UAF1 complex (WT-USP1/UAF1) (protein)
chain 1: MPGVIPSESNGLSRGSPSKKNRLSLKFFQKKETKRALDFTDSQENEEKASEYRASEIDQVVPAAQSSPINCEKRENLLPFVGLNNLGNTCYLNSILQVLYFCPGFKSGVKHLFNIISRKKEALKDEANQKDKGNCKEDSLASYELICSLQSLIISVEQLQASFLLNPEKYTDELATQPRRLLNTLRELNPMYEGYLQHDAQEVLQCILGNIQETCQLLKKEEVKNVAELPTKVEEIPHPKEEMNGINSIEMDSMRHSEDFKEKLPKGNGKRKSDTEFGNMKKKVKLSKEHQSLEENQRQTRSKRKATSDTLESPPKIIPKYISENESPRPSQKKSRVKINWLKSATKQPSILSKFCSLGKITTNQGVKGQSKENECDPEEDLGKCESDNTTNGCGLESPGNTVTPVNVNEVKPINKGEEQIGFELVEKLFQGQLVLRTRCLECESLTERREDFQDISVPVQEDELSKVEESSEISPEPKTEMKTLRWAISQFASVERIVGEDKYFCENCHHYTEAERSLLFDKMPEVITIHLKCFAASGLEFDCYGGGLSKINTPLLTPLKLSLEEWSTKPTNDSYGLFAVVMHSGITISSGHYTASVKVTDLNSLELDKGNFVVDQMCEIGKPEPLNEEEARGVVENYNDEEVSIRVGGNTQPSKVLNKKNVEAIGLLGGQKSKADYELYNKASNPDKVASTAFAENRNSETSDTTGTHESDRNKESSDQTGINISGFENKISYVVQSLKEYEGKWLLFDDSEVKVTEEKDFLNSLSPS
chain 2: not shown
B1 was tested, and the “Km (Ub-AMC deubiquitination assay, USP1/UAF1 complex alone, no DNA)” value was “decreasing the Km from 0.79 µM to 0.33 µM” and the “Km (Ub-AMC deubiquitination assay, USP1/UAF1 complex with fork DNA)” value was “decreasing the Km from 0.79 µM to 0.33 µM”.
